B1: 5KPH (parent)
chain: EEKRQVKQVAKEKLLEQSPNSKVQVRRVQKQGNTIRVELELRTNGKKENYTVEVERQGNTWTVKRITRT

Variants of: B1
Assay: folding stability dG (cDNA display proteolysis); higher = more stable
Details: PBS, room temperature

Variant | folding stability dG
EEKRQVKQVAKEKLLEQSPNSKVQVRRVQKQGNTIRVELELRTNGKKENYTVEVERQGNTHTVKRITRT [W61H] | 2.59 kcal/mol
EEKRQVKQVAKEKLLEQSPNSKVQVRRVQKQGNTIRVELELRTNGKKENYTVEVERQGNTRTVKRITRT [W61R] | 1.41 kcal/mol
EEKRQVKQVAKEKLLEQSPNSKVQVRRVQKQGNTIRVELELRTNGKKENYTVEVERQGNTGTVKRITRT [W61G] | 1.39 kcal/mol
EEKRQVKQVAKEKLLEQSPNSKVQVRRVQKQGNTIRVELELRTNGKKENYTVEVERQGNTETVKRITRT [W61E] | 0.848 kcal/mol
EEKRQVKQVAKEKLLEQSPNSKVQVRRVQKQGNTIRVELELRTNGKKENYTVEVERQGNTPTVKRITRT [W61P] | 1.94 kcal/mol
EEKRQVKQVAKEKLLEQSPNSKVQVRRVQKQGNTIRVELELRTNGKKENYTVEVERQGNTKTVKRITRT [W61K] | 0.975 kcal/mol
EEKRQVKQVAKEKLLEQSPNSKVQVRRVQKQGNTIRVELELRTNGKKENYTVEVERQGNTFTVKRITRT [W61F] | 3.74 kcal/mol
EEKRQVKQVAKEKLLEQSPNSKVQVRRVQKQGNTIRVELELRTNGKKENYTVEVERQGNTITVKRITRT [W61I] | 3.14 kcal/mol
EEKRQVKQVAKEKLLEQSPNSKVQVRRVQKQGNTIRVELELRTNGKKENYTVEVERQGNTVTVKRITRT [W61V] | 2.9 kcal/mol
EEKRQVKQVAKEKLLEQSPNSKVQVRRVQKQGNTIRVELELRTNGKKENYTVEVERQGNTMTVKRITRT [W61M] | 3.21 kcal/mol
EEKRQVKQVAKEKLLEQSPNSKVQVRRVQKQGNTIRVELELRTNGKKENYTVEVERQGNTYTVKRITRT [W61Y] | 4.03 kcal/mol
EEKRQVKQVAKEKLLEQSPNSKVQVRRVQKQGNTIRVELELRTNGKKENYTVEVERQGNTCTVKRITRT [W61C] | 2.68 kcal/mol
EEKRQVKQVAKEKLLEQSPNSKVQVRRVQKQGNTIRVELELRTNGKKENYTVEVERQGNTATVKRITRT [W61A] | 2.23 kcal/mol
EEKRQVKQVAKEKLLEQSPNSKVQVRRVQKQGNTIRVELELRTNGKKENYTVEVERQGNTDTVKRITRT [W61D] | 1.07 kcal/mol
EEKRQVKQVAKEKLLEQSPNSKVQVRRVQKQGNTIRVELELRTNGKKENYTVEVERQGNTTTVKRITRT [W61T] | 2.21 kcal/mol
EEKRQVKQVAKEKLLEQSPNSKVQVRRVQKQGNTIRVELELRTNGKKENYTVEVERQGNTSTVKRITRT [W61S] | 2 kcal/mol
EEKRQVKQVAKEKLLEQSPNSKVQVRRVQKQGNTIRVELELRTNGKKENYTVEVERQGNTQTVKRITRT [W61Q] | 1.88 kcal/mol
EEKRQVKQVAKEKLLEQSPNSKVQVRRVQKQGNTIRVELELRTNGKKENYTVEVERQGNTNTVKRITRT [W61N] | 1.83 kcal/mol
EEKRQVKQVAKEKLLEQSPNSKVQVRRVQKQGNTIRVELELRTNGKKENYTVEVERQGNTLTVKRITRT [W61L] | 3.64 kcal/mol
EEKRQVKQVAKEKLLEQSPNSKVQVRRVQKQGNTIRVELELRTNGKKENYTVEVERQGNTWAVKRITRT [T62A] | 4.05 kcal/mol

Variant | folding stability dG
EEKRQVKQVAKEKLLEQSPNSKVQVRRVQKQGNTIRVELELRTNGKKENYTVEVERQGNTWLVKRITRT [T62L] | 4.03 kcal/mol
EEKRQVKQVAKEKLLEQSPNSKVQVRRVQKQGNTIRVELELRTNGKKENYTVEVERQGNTWNVKRITRT [T62N] | 3.62 kcal/mol
EEKRQVKQVAKEKLLEQSPNSKVQVRRVQKQGNTIRVELELRTNGKKENYTVEVERQGNTWGVKRITRT [T62G] | 3.48 kcal/mol
EEKRQVKQVAKEKLLEQSPNSKVQVRRVQKQGNTIRVELELRTNGKKENYTVEVERQGNTWYVKRITRT [T62Y] | 4.57 kcal/mol
EEKRQVKQVAKEKLLEQSPNSKVQVRRVQKQGNTIRVELELRTNGKKENYTVEVERQGNTWDVKRITRT [T62D] | 3.13 kcal/mol
EEKRQVKQVAKEKLLEQSPNSKVQVRRVQKQGNTIRVELELRTNGKKENYTVEVERQGNTWKVKRITRT [T62K] | 3.96 kcal/mol
EEKRQVKQVAKEKLLEQSPNSKVQVRRVQKQGNTIRVELELRTNGKKENYTVEVERQGNTWWVKRITRT [T62W] | 4.24 kcal/mol
EEKRQVKQVAKEKLLEQSPNSKVQVRRVQKQGNTIRVELELRTNGKKENYTVEVERQGNTWRVKRITRT [T62R] | 3.9 kcal/mol
EEKRQVKQVAKEKLLEQSPNSKVQVRRVQKQGNTIRVELELRTNGKKENYTVEVERQGNTWSVKRITRT [T62S] | 3.75 kcal/mol
EEKRQVKQVAKEKLLEQSPNSKVQVRRVQKQGNTIRVELELRTNGKKENYTVEVERQGNTWQVKRITRT [T62Q] | 3.92 kcal/mol
EEKRQVKQVAKEKLLEQSPNSKVQVRRVQKQGNTIRVELELRTNGKKENYTVEVERQGNTWFVKRITRT [T62F] | 4.24 kcal/mol
EEKRQVKQVAKEKLLEQSPNSKVQVRRVQKQGNTIRVELELRTNGKKENYTVEVERQGNTWEVKRITRT [T62E] | 3.82 kcal/mol
EEKRQVKQVAKEKLLEQSPNSKVQVRRVQKQGNTIRVELELRTNGKKENYTVEVERQGNTWHVKRITRT [T62H] | 3.93 kcal/mol
EEKRQVKQVAKEKLLEQSPNSKVQVRRVQKQGNTIRVELELRTNGKKENYTVEVERQGNTWPVKRITRT [T62P] | 1.79 kcal/mol
EEKRQVKQVAKEKLLEQSPNSKVQVRRVQKQGNTIRVELELRTNGKKENYTVEVERQGNTWCVKRITRT [T62C] | 3.48 kcal/mol
EEKRQVKQVAKEKLLEQSPNSKVQVRRVQKQGNTIRVELELRTNGKKENYTVEVERQGNTWVVKRITRT [T62V] | 4.27 kcal/mol
EEKRQVKQVAKEKLLEQSPNSKVQVRRVQKQGNTIRVELELRTNGKKENYTVEVERQGNTWMVKRITRT [T62M] | 3.97 kcal/mol
EEKRQVKQVAKEKLLEQSPNSKVQVRRVQKQGNTIRVELELRTNGKKENYTVEVERQGNTWIVKRITRT [T62I] | 4.26 kcal/mol
EEKRQVKQVAKEKLLEQSPNSKVQVRRVQKQGNTIRVELELRTNGKKENYTVEVERQGNTWTEKRITRT [V63E] | 1.26 kcal/mol

Reference: the MegaScale stability set (Tsuboyama et al. 2023)
